According to publication PMC9482650, “Quantitative fragmentomics allow affinity mapping of interactomes” (Nature Communications, 2022):

Legend:
Experiment in all cases: holdup assay
Set-up in all cases: key: below the threshold = too weak to quantify, mostly under pKd 3.1 to 4
Conditions in all cases: plain residues with an end cap or a label only (N-terminal biotin on a linker: ado-ado)
FRMPD2_1, Q68DX3 = target: FRMPD2_1, Q68DX3
PDLIM1, O00151 = target: PDLIM1, O00151
PTPN3, P26045 = target: PTPN3, P26045
ARHGEF11, O15085 = target: T1, ARHGEF11, O15085
T1 sequence (O15085 42-136, limits assumed, looked up): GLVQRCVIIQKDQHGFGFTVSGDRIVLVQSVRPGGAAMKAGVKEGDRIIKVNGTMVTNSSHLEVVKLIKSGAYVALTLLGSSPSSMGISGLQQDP

MAGI2_4, Q86UL8 = target: MAGI2_4, Q86UL8
NHERF4_1, Q86UT5-2 = target: NHERF4_1, Q86UT5-2
GRID2IP_1, A4D2P6 = target: GRID2IP_1, A4D2P6
Inadl_2, Q8NI35 = target: Inadl_2, Q8NI35
MAGI2_3, Q86UL8 = target: MAGI2_3, Q86UL8
LNX2_3, Q8N448 = target: T2, LNX2_3, Q8N448
T2 sequence (Q8N448 463-564, limits assumed, looked up): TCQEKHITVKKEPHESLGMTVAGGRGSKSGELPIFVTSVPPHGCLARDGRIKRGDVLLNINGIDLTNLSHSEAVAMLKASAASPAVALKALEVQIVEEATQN

DLG2_3, Q15700 = target: DLG2_3, Q15700
Inadl_4, Q8NI35 = target: Inadl_4, Q8NI35
SCRIB_2, Q14160 = target: SCRIB_2, Q14160
APBA1_1, Q02410 = target: T3, APBA1_1, Q02410
T3 sequence (Q02410 651-752, limits assumed, looked up): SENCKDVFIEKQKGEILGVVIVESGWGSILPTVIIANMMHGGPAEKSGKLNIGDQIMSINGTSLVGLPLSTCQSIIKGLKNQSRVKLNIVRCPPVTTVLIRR

RAPGEF6, Q8TEU7 = target: T4, RAPGEF6, Q8TEU7
T4 sequence (Q8TEU7 525-625, limits assumed, looked up): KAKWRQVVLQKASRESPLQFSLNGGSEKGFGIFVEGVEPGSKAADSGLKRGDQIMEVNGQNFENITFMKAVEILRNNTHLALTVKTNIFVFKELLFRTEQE

LDB3, O75112 = target: LDB3, O75112
APBA1_2, Q02410 = target: T5, APBA1_2, Q02410
T5 sequence (Q02410 742-832, limits assumed, looked up): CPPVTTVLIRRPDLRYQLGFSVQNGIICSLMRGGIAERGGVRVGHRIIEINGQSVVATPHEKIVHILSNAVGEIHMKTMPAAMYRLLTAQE

ARHGAP21, Q5T5U3 = target: T6, ARHGAP21, Q5T5U3
T6 sequence (Q5T5U3 45-169, limits assumed, looked up): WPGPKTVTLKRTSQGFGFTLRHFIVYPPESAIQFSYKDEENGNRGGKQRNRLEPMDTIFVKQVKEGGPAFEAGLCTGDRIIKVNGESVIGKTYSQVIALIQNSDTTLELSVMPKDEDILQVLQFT

LIN7C, Q9NUP9 = target: T7, LIN7C, Q9NUP9
T7 sequence (Q9NUP9 88-185, limits assumed, looked up): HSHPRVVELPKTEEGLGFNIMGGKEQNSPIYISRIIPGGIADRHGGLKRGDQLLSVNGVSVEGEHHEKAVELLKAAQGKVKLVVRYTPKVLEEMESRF

MAGI3_2, Q5TCQ9 = target: MAGI3_2, Q5TCQ9
FRMPD2_2, Q68DX3 = target: FRMPD2_2, Q68DX3
SHANK1, Q9Y566 = target: T8, SHANK1, Q9Y566
T8 sequence (Q9Y566 658-767, limits assumed, looked up): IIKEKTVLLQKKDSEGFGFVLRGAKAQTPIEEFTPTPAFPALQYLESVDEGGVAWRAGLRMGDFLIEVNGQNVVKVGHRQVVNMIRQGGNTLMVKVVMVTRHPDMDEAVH

PARD3_3, Q8TEW0 = target: PARD3_3, Q8TEW0
NHERF4_2, Q86UT5 = target: NHERF4_2, Q86UT5
Inadl_8, Q8NI35 = target: Inadl_8, Q8NI35
DLG4_1, P78352 = target: DLG4_1, P78352
TJP3_3, O95049 = target: T9, TJP3_3, O95049
T9 sequence (O95049 375-456, limits assumed, looked up): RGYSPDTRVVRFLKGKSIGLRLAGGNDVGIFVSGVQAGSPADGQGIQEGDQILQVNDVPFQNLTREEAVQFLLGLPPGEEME

LRRC7, Q96NW7 = target: T10, LRRC7, Q96NW7
T10 sequence (Q96NW7 1440-1537, limits assumed, looked up): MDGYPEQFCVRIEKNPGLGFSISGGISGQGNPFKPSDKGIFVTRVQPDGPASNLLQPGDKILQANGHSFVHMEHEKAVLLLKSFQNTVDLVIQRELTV

Sequence of NHERF4_2, Q86UT5 (Q86UT5 220-308): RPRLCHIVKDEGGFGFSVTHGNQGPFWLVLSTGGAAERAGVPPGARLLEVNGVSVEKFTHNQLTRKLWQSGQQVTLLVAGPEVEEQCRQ
Sequence of DLG4_1, P78352 (P78352 62-152): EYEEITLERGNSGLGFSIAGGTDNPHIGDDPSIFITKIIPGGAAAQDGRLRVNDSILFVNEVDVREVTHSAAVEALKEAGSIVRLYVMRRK
Sequence of PDLIM1, O00151 (O00151 1-87): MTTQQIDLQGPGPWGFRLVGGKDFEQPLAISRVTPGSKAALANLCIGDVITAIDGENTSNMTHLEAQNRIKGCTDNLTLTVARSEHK
Sequence of Inadl_2, Q8NI35 (Q8NI35 238-335): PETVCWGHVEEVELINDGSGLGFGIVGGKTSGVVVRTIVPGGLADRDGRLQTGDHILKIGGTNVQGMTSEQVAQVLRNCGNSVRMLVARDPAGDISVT
Sequence of Inadl_4, Q8NI35 (Q8NI35 547-651): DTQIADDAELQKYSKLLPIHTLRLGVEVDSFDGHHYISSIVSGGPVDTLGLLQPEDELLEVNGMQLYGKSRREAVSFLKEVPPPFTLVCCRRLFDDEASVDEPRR
Sequence of SCRIB_2, Q14160 (Q14160 857-960): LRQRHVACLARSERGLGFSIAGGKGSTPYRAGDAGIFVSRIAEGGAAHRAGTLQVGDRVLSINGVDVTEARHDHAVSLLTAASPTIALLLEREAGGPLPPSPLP
Sequence of PTPN3, P26045 (P26045 505-587): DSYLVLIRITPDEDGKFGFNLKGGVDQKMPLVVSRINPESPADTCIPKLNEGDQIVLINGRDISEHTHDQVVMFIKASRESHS
Sequence of Inadl_8, Q8NI35 (Q8NI35 1425-1530): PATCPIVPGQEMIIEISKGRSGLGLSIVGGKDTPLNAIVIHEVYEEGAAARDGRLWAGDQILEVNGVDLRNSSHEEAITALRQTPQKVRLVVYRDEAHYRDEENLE
Sequence of FRMPD2_1, Q68DX3 (Q68DX3 770-861): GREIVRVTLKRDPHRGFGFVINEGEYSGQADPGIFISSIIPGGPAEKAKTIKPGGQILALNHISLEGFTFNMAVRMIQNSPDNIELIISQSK
Sequence of MAGI2_3, Q86UL8 (Q86UL8 600-682): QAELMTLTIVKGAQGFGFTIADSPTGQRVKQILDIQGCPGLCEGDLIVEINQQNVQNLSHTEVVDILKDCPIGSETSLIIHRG
Sequence of LDB3, O75112 (O75112 1-94): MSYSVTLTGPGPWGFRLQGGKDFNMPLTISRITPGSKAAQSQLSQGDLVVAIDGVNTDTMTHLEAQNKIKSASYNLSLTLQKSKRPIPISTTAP
Sequence of NHERF4_1, Q86UT5-2 (Q86UT5 other isoform, or with tags, fused parts or gaps): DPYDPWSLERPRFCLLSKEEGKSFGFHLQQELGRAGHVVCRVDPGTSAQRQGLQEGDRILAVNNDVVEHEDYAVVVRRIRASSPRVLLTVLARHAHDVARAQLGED
Sequence of FRMPD2_2, Q68DX3 (Q68DX3 944-1038): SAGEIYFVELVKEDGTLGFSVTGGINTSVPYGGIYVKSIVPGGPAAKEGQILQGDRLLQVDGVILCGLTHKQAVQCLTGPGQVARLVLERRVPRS
Sequence of GRID2IP_1, A4D2P6 (A4D2P6 1-87): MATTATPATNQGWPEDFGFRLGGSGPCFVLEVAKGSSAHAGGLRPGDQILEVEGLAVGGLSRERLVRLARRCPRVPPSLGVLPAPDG
Sequence of MAGI3_2, Q5TCQ9 (Q5TCQ9 398-503): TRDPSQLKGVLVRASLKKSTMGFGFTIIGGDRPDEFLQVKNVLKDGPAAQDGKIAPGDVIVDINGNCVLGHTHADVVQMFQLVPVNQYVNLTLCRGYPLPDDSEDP
Sequence of PARD3_3, Q8TEW0 (Q8TEW0 582-685): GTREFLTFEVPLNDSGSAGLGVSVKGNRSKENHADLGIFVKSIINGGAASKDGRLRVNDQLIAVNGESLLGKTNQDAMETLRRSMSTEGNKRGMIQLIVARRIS
Sequence of MAGI2_4, Q86UL8 (Q86UL8 772-865): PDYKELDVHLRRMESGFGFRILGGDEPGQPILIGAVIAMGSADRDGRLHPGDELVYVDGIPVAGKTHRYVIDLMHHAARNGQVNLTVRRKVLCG

In the case of FHSIKQSTAV [CRHR1, P34998], the pKd (FRMPD2_1, Q68DX3) is reported as 3.93, the pKd (PDLIM1, O00151) is reported as “below the threshold” and the pKd (PTPN3, P26045) is reported as 4.6. It also gave a pKd (ARHGEF11, O15085) of 5, a pKd (MAGI2_4, Q86UL8) of 4.42 and a pKd (NHERF4_1, Q86UT5-2) of 3.81. For the same binder, the pKd (GRID2IP_1, A4D2P6) was “below the threshold”, the pKd (Inadl_2, Q8NI35) was “below the threshold” and the pKd (MAGI2_3, Q86UL8) was 3.61. For the same binder, the pKd (LNX2_3, Q8N448) was “below the threshold”, the pKd (DLG2_3, Q15700) was 4.54 and the pKd (Inadl_4, Q8NI35) was “below the threshold”. For the same binder, the pKd (SCRIB_2, Q14160) was 4.18, the pKd (APBA1_1, Q02410) was “below the threshold” and the pKd (RAPGEF6, Q8TEU7) was “below the threshold”. The pKd (LDB3, O75112) was “below the threshold”, the pKd (APBA1_2, Q02410) was 4.15 and the pKd (ARHGAP21, Q5T5U3) was “below the threshold”. For the same binder, the pKd (LIN7C, Q9NUP9) was “below the threshold”, the pKd (MAGI3_2, Q5TCQ9) was 5.01 and the pKd (FRMPD2_2, Q68DX3) was 3.7. For the same binder, the pKd (SHANK1, Q9Y566) was 4.55, the pKd (PARD3_3, Q8TEW0) was “below the threshold” and the pKd (NHERF4_2, Q86UT5) was “below the threshold”. For the same binder, the pKd (Inadl_8, Q8NI35) was 3.87, the pKd (DLG4_1, P78352) was 4.56 and the pKd (TJP3_3, O95049) was “below the threshold”. For the same binder, the pKd (LRRC7, Q96NW7) was 3.49.
